According to publication PMC7506551, “A heterotrimeric SMARCB1–SMARCC2 subcomplex is required for the assembly and tumor suppression function of the BAF chromatin-remodeling complex” (Cell Discovery, 2020):

What was measured:
SMARCB1 (aa 169–385) = biological target: T1, SMARCB1 (aa 169–385) (human, UniProt Q12824 169-385); assay: ITC; conditions not shown; two-site binding model for SMARCC2 325-518 with SMARCB1 169-385; conditions: both partners purified
T1 construct: SMARCB1/BAF47/INI1/SNF5, human, residues 169-385, holds the Rpt1 and Rpt2 motifs; resolved 184-356 in the crystal; they may stand in the supplementary information; also called SMARCB1^(169–385); BAF47

[1] = biological target: T2, SWIRM domain of SMARCC2 (aa 423–518) (human, UniProt Q8TAQ2 423-518); assay: as above; conditions: both partners purified
T2 construct: SMARCC2/BAF170, human, SWIRM domain, residues 423-518; also called SMARCC2^(423–518); SMARCC2^SWIRM

Kd of one of the two sites (two-site binding model) (SMARCB1 (aa 169–385)) [nM]	Kd [1] [nM]	Binder
112		SMARCC2 (aa 325–518) (domain or fragment, human, UniProt Q8TAQ2 325-518, looked up, SMARCC2/BAF170, human, residues 325-518, holds the SWIRM domain; resolved 423-514 in the crystal, residues 325-422 possibly degraded during crystallization; Two copies stand in the heterotrimer with one SMARCB1 169-385; also called SMARCC2^(325–518); BAF170) TKSKRGHREEEQEDLTKDMDEPSPVPNVEEVTLPKTVNTKKDSESAPVKGGTMTDLDEQEDESMETTGKDEDENSTGNKGEQTKNPDLHEDNVTEQTHHIIIPSYAAWFDYNSVHAIERRALPEFFNGKNKSKTPEIYLAYRNFMIDTYRLNPQEYLTSTACRRNLAGDVCAIMRVHAFLEQWGLINYQVDAES
	~120	isolated Rpt1 motif of SMARCB1 (domain or fragment) DDHDPAVIHENASQPEVLVPIRLDMEIDGQKLRDAFTWNMNEKLMTPEMFSEILCDDLDLNPLTFVPAIASAIRQQIESYPTDS
